The text below walks through data of publication PMC10711550.

Data set [1] has as its target full-length human SOX2 (human) (UniProt P48431). Description: BLI; SOX2 (0.2 mg/ml) immobilised on an AR2G chip, quenched with 1 M ethanolamine; p300 fragments in PBS; global fit to a 1:1 binding model (BLItz Pro v.1.2.1.5).
A further data set has as its target SOX2 mutant E78A (human) (UniProt P48431).
Another data set deals with SOX2 mutant E86A (human) (UniProt P48431).
For another data set, the target named is p300 full length (human) (UniProt Q09472). Kind of data set: EMSA. To be noted: EMSA: 10 mM HEPES-NaOH pH 7.3, 50 mM KCl, 5 mM MgCl2, 0.5 mM DTT, 5% glycerol, 0.5 mg/ml BSA; 1 h incubation; 1 nM DNA (Fig 2B); 4% native PAGE, 0.5x TBE, 4 C.
For the next data set, the target named is SOX2DBD (human) (UniProt P48431). Description: EMSA. The settings on record: EMSA: 10 mM HEPES-NaOH pH 7.3, 50 mM KCl, 5 mM MgCl2, 0.5 mM DTT, 5% glycerol, 0.5 mg/ml BSA; 1 h incubation; 1 nM DNA (Fig 2B); 4% native PAGE, 0.5x TBE, 4 C. In general terms: A gel shift assay detects complexes by their altered migration in electrophoresis.

What is called Kd is the constant that tells how readily two partners part at equilibrium. A lower Kd goes with a tighter complex. As a reminder, the koff is a measure of how fast the partners let go of each other. A low value points to slow dissociation. Broadly, the kon is the rate constant with which the complex forms. Read a low kon as slow association.

Chain of full-length human SOX2 (human) (P48431 whole entry, the tested form may be a part): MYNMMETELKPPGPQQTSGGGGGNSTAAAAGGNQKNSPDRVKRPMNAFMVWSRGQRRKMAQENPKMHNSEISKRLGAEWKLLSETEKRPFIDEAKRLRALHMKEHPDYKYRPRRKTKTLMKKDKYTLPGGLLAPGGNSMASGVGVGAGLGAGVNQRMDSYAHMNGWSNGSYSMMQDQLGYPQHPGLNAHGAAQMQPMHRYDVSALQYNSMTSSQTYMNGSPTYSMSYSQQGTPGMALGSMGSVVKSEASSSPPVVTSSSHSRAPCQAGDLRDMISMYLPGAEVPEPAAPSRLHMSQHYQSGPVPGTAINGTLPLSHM
Chain of SOX2DBD (human) (P48431 39-127): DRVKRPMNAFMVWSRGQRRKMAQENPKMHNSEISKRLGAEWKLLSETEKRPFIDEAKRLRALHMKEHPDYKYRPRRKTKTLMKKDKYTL
Chain of SOX2 mutant E86A (human) (P48431 whole entry E86A): as the sequence (P48431 whole entry, the tested form may be a part) above, with E86A counted along it
Chain of p300 full length (human) (Q09472 whole entry): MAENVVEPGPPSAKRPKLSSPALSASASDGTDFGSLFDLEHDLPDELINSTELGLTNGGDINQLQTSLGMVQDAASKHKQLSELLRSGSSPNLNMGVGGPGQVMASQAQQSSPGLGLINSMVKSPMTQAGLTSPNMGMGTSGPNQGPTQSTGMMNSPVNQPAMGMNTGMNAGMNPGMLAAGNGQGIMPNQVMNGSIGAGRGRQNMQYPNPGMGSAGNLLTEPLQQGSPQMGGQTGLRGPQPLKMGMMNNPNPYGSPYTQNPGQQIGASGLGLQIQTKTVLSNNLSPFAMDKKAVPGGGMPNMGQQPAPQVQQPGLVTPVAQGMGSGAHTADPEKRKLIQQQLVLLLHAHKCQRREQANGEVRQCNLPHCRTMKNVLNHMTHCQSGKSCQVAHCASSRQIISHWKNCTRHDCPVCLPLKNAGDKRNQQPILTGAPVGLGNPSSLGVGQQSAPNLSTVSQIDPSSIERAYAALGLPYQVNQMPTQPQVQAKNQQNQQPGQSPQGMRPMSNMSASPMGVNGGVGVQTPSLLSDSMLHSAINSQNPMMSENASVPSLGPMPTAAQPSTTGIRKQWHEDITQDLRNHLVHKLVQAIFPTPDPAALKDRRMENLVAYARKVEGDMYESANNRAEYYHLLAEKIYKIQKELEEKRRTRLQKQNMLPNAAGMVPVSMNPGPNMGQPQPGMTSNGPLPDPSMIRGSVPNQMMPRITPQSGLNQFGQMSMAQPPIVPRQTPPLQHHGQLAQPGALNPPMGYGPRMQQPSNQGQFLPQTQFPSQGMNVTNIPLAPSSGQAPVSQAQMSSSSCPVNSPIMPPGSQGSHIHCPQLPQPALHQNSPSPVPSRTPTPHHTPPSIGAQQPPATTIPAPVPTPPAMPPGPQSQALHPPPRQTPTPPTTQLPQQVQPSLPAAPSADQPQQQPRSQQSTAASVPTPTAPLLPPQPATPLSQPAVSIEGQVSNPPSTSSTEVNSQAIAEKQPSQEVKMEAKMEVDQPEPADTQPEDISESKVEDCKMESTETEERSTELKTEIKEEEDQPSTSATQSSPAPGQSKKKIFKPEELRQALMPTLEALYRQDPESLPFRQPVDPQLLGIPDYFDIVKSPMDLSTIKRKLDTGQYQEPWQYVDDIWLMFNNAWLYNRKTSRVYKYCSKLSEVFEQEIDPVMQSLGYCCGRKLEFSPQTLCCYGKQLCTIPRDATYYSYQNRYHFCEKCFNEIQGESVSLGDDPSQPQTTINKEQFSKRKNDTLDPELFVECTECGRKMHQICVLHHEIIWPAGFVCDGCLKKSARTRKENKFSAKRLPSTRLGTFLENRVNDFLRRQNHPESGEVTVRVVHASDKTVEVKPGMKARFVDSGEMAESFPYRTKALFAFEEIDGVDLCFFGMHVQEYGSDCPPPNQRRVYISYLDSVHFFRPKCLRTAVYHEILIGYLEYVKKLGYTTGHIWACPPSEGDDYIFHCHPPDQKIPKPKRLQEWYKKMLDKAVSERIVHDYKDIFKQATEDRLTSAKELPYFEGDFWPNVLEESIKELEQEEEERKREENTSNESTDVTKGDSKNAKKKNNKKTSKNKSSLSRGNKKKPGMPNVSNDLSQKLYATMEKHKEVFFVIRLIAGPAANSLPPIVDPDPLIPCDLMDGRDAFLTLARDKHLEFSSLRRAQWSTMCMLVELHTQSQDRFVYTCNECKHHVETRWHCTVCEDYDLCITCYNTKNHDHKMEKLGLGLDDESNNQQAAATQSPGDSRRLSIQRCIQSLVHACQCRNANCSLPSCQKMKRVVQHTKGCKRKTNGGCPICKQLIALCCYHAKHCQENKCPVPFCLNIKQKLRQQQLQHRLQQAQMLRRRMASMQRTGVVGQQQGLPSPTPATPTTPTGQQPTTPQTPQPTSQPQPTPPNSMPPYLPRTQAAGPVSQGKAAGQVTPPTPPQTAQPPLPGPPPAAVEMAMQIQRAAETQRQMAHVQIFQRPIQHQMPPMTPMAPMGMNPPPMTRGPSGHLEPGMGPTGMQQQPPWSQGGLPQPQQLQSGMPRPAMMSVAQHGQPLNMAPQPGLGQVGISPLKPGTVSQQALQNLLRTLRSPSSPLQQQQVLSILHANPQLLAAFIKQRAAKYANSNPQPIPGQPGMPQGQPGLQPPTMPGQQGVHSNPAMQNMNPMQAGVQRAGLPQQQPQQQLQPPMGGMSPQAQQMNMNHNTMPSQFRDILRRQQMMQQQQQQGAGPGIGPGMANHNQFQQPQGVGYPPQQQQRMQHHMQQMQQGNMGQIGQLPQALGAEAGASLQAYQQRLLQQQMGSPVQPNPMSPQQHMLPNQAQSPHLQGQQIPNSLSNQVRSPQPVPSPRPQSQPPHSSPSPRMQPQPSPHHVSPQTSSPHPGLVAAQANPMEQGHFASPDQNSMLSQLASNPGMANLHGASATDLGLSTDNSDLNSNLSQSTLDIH
Chain of SOX2 mutant E78A (human) (P48431 whole entry E78A): as the sequence (P48431 whole entry, the tested form may be a part) above, with E78A counted along it

In data set [1], “p300 KIX domain (aa 566-646) (from UniProt Q09472 566-646) (domain or fragment)” registered a Kd of 2680 nM, a koff of 0.0469 s⁻¹ and a kon of 12300 M⁻¹ s⁻¹.
For “full-length p300 (Protein One), Q09472 1-2414”, the luciferase activity of pGL3-SM in cells expressing the SOX2 mutant, relative to wild-type SOX2 with SOX2 mutant E78A (human) and in the data set with SOX2 mutant E86A (human) was 30% in each case.
Consider “GCGGTCCATTATTCCAATTGATTTCAATTCTATTGATAGTCAGATTGAGAGACTCAGGTGCCTCTTTTGAATATCTTCTTTTGTTGGGGCCGCACACCCTGAGAGGTGGTGGAAGTCTGAGTTAGACTTTAGCCTGATCTACATAGCAAGTTCCGGGACATGCAAGGACTAC (double strand) [SM]”, for which the binding result with p300 full length (human) was “no binding”. This substance also returned a binding signal with SOX2DBD (human) of 71 % bound.
Consider “GTAGTCCTTGCATGTCCCGGAACTTGCTATGTAGATCAGGCTAAAGTCTAACTCAGACTTCCACCACCTCTCAGGGTGTGCGGCCCCAAGATAAGAAGATATTCAAAAGAGGCACCTGAGTCTCTCAATCTGACTATCAATAGAATTGAAATCAATTGGAATAATGGACCGC (double strand) [dSM]”, for which the binding result with SOX2DBD (human) is on record as “no binding”.
